According to publication PMC8044456, “Tandem UGT71B5s Catalyze Lignan Glycosylation in Isatis indigotica With Substrates Promiscuity” (Frontiers in Plant Science, 2021):

What was measured:
Assay in all cases: LC/MS glucosylation assay, Lineweaver-Burk
Type in all cases: biochemical, Isatis tinctoria
Conditions in all cases: 2 mM UDP-glucose, 20–200 μM acceptor, 100 mM phosphate pH 8.0, 30°C
[1] = substrate: COc1cc(C[C@H]2COC(=O)[C@@H]2Cc2ccc(O)c(OC)c2)ccc1O
Source text: (§1) LC/MS glucosylation assay, Lineweaver-Burk on IiUGT71B5b

[2] = substrate: Oc1cc2c(cc1[C@H]1OC[C@H]3[C@@H]1CO[C@@H]3c1ccc3c(c1)OCO3)OCO2
Source text: as §1

[3] = substrate: COc1cc(C[C@@H](CO)[C@H](CO)Cc2ccc(O)c(OC)c2)ccc1O
Source text: (§2) LC/MS glucosylation assay, Lineweaver-Burk on IiUGT71B5a

[4] = substrate: COc1cc(C[C@H]2COC(=O)[C@@H]2Cc2ccc(O)c(OC)c2)ccc1O; remark: listed apart in the source
Source text: as §2

[5] = substrate: COc1cc(C[C@H]2CO[C@H](c3ccc(O)c(OC)c3)[C@H]2CO)ccc1O
Source text: as §2

[6] = substrate: COc1cc([C@@H]2OC[C@@H]3[C@H]2CO[C@H]3c2ccc(O)c(OC)c2)ccc1O
Source text: as §2

[7] = substrate: Oc1cc2c(cc1[C@H]1OC[C@H]3[C@@H]1CO[C@@H]3c1ccc3c(c1)OCO3)OCO2; remark: listed apart in the source
Source text: as §2

[8] = substrate: [H][C@@]1(Oc2ccc([C@H]3OC[C@]4([H])[C@@H](c5ccc(O)c(OC)c5)OC[C@]34[H])cc2OC)O[C@H](CO)[C@@H](O)[C@H](O)[C@H]1O
Source text: as §2

B1: IiUGT71B5b (Isatis tinctoria) (protein)
chain: MKIELVFMPSPGIGHLRSTVQLAKQLVNGDDRLSITVIIIPRSSGGDATDSAQISSLFTASQDRLRYESISVADEPTTNRLPTQHYIASQKPQVRDAVAKLIDPTRVDSPPRLAGFVVDMFCISMIDLADEFGVPTYMVYTSNARFLGITLHLQLMIDEKKYDATELDESVNELEFPCLTRPYPVDCLPHILISKDYLFMDQARSYRKMKGILVNTVAELEPHALELFSGDGDLPRAYPVGPVLHLESRSDHSNDDGKQSEILRWLDEQPAKSVVFLCFGSMGGFNEEQAREIAVALDRSGHRFLWSLRRASPDIMKEGPRDYTNLDEVLPEGFLDRTSERGKIIGWAPQAAVLAKPAIGGFVTHCGWNSMLESLWFGVPTVTWPLYAEQKVNAFEMVEELGLAVEIRRSLKGDLMFGGMETVTAEDIERAIRRVMEQGSDVRNRVKEMAEKCHVALTDGGSSKAALRKFIEDVVENVAA
notes: full-length ORF 1,443 bp, 480 aa; pET-32a+ tagged recombinant, E. coli BL21(DE3), Ni-NTA; tag removal not mentioned; gene in tandem cluster Ii4G26670/Ii4G26680/Ii4G26690 (Ii4G26690 = IiUGT71B5c); genome VHIU00000000
[1]
  Km: 61.34 ± 1.48 µM
  Vmax: 2.41e-05 µmol/min
  kcat: 0.0277 s⁻¹
  kcat/Km: 451 M⁻¹ s⁻¹
[2]
  Km: 135.48 ± 10.90 µM
  Vmax: 0.000125 µmol/min
  kcat: 0.143 s⁻¹
  kcat/Km: 1060 M⁻¹ s⁻¹

B2: IiUGT71B5a (Isatis tinctoria) (protein)
chain: MKIELVFIPSPGIGHLRSTVELAKQLVNGDDRLSITVIIIPRSSGGDATDSAQISSLFAASQDRLRYETISVADEPTADRLPTQLYIKNQKPQVRDAVAKILDPARVDSPPRLAGFVVDMFCTSMIDLADEFGVPTYMVYTSNATFLGITLHLQLMLDEKKYDTSELDESVNELEFPCLTRPYPVECLPYLFISKEWLPFFMDQARSFRKMKGILVNTVAELEPHALELFSGDDDLPRAYPVGPVLHLESGSDNSNDDGKQSEILRWLDDQPAKSVVFLCFGSMGGFNEEQTREIAVALDRSGHRFLWSLRRASPDILKQGPGDYTDLDEVLPEGFLDRTLERGKIIGWAPQAAVLAKPAIGGFVTHCGWNSMLESLWFGVPMVTWPLYAEQKVNAFVMVEELGLAVEIRRSLKGDLMAGGMETVAAEDIERAIRRVMEQDSDVRNRVKEMAEKCHVALTDGGSSQVALRKFIQDVIENVVV
notes: full-length ORF 1,449 bp, 482 aa; pET-32a+ tagged recombinant, E. coli BL21(DE3), Ni-NTA; tag removal not mentioned; gene in tandem cluster Ii4G26670/Ii4G26680/Ii4G26690 (Ii4G26690 = IiUGT71B5c); genome VHIU00000000
[3]
  Km: 168.48 ± 9.18 µM
  Vmax: 8.34e-05 µmol/min
  kcat: 0.0961 s⁻¹
  kcat/Km: 571 M⁻¹ s⁻¹
[4]
  Km: 62.35 ± 1.53 µM
  Vmax: 3.5e-05 µmol/min
  kcat: 0.0403 s⁻¹
  kcat/Km: 646 M⁻¹ s⁻¹
[5]
  Km: 568.29 ± 16.08 µM
  Vmax: 0.000141 µmol/min
  kcat: 0.162 s⁻¹
  kcat/Km: 285 M⁻¹ s⁻¹
[6]
  Km: 67.16 ± 2.00 µM
  Vmax: 6.12e-05 µmol/min
  kcat: 0.07 s⁻¹
  kcat/Km: 1040 M⁻¹ s⁻¹
[7]
  Km: 48.00 ± 0.79 µM
  Vmax: 0.00049 µmol/min
  kcat: 0.563 s⁻¹
  kcat/Km: 11700 M⁻¹ s⁻¹
[8]
  Km: 136.06 ± 6.56 µM
  Vmax: 0.000111 µmol/min
  kcat: 0.128 s⁻¹
  kcat/Km: 939 M⁻¹ s⁻¹
